Data from US20240018502A1.
Residue numbers refer to the chain shown, from its start. Names may count otherwise. Values belong to the binder of their own block, whether it stands above or below them.

Target: plasma purified human complement protein C3 (human) (UniProt P01024)
Assay: cell-based or functional assay

Chain of plasma purified human complement protein C3 (human) (P01024 23-667, chain 1 of 2): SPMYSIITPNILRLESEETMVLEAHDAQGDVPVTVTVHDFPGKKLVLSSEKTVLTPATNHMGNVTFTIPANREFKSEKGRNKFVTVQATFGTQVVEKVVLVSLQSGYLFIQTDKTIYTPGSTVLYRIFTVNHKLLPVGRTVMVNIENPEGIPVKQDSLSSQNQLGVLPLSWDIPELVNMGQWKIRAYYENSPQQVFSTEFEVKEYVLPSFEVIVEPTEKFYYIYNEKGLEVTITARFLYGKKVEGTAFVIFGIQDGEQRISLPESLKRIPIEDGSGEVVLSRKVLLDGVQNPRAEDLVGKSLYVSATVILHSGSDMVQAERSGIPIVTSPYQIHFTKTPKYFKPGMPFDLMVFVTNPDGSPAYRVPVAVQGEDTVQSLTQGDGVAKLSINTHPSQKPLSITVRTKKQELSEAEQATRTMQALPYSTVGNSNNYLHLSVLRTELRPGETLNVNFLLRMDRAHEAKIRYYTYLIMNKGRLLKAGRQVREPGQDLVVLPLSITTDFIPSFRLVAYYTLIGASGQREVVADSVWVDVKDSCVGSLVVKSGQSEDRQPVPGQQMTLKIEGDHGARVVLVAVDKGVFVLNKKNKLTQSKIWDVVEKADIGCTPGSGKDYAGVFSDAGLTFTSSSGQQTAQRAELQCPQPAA
Chain of plasma purified human complement protein C3 (human) (P01024 672-1663, chain 2 of 2): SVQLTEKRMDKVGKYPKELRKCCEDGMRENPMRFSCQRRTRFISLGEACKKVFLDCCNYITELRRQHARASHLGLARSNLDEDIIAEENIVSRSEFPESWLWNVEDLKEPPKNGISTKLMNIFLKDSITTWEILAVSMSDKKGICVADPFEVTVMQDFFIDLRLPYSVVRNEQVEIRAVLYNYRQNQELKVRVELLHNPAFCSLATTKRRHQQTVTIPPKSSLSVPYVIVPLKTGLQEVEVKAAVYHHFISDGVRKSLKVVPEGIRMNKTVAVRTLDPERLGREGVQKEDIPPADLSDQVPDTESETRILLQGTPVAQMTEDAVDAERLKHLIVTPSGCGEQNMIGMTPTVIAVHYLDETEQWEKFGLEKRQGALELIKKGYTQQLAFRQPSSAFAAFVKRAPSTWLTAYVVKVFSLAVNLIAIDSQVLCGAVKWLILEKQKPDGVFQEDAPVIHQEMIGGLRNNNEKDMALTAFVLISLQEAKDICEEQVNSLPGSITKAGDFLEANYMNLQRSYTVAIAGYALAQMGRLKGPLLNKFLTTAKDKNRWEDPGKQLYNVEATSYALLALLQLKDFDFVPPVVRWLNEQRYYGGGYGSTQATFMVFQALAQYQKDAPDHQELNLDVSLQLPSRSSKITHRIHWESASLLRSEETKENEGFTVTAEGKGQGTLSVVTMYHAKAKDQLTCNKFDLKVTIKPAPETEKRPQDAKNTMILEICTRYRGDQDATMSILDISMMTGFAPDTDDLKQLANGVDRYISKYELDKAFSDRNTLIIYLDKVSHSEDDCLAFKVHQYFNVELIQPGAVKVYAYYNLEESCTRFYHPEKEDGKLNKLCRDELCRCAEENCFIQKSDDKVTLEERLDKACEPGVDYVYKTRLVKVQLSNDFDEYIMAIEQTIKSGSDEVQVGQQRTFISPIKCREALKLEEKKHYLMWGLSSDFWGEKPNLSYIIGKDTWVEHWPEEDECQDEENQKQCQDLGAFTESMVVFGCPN

B1: MTSP-1 H40R/I41H/F97D/F99L/C122S/G151N/Q175M/Q192A/D217N/K224R (enzyme)
chain: VVGGTDADEGEWPWQVSLHALGQGRHCGASLISPNWLVSAAHCYIDDRGFRYSDPTQWTAFLGLHDQSQRSAPGVQERRLKRIISHPFFNDDTLDYDIALLELEKPAEYSSMVRPISLPDASHVFPAGKAIWVTGWGHTQYGGTNALILQKGEIRVINQTTCENLLPQMITPRMMCVGFLSGGVDSCAGDSGGPLSSVEADGRIFQAGVVSWGNGCAQRNRPGVYTRLPLFRDWIKENTGV
EC50 of hC3 cleavage: 563 nM

B2: MTSP-1 I41R/F99L/C122S/Q192G (enzyme)
chain: B1 chain with R25H, H26R, D92F, N145G, M169Q, A188G, N214D, R221K
EC50 of hC3 cleavage: 53.8 nM

B4: MTSP-1 H40K/I41M/F97D/F99L/C122S/Q175M/Q192D/D217N/K224R (enzyme)
chain: B1 chain with R25K, H26M, N145G, A188D
EC50 of hC3 cleavage: 9.64 nM

B6: MTSP-1 H40R/I41H/F97D/F99L/C122S/Q175M/D217N/K224R (enzyme)
chain: B1 chain with N145G, A188Q
EC50 of hC3 cleavage: 103 nM

B7: MTSP-1 H40K/I41M/F97D/F99L/C122S/G151N/Q175M/Q192A/D217N/K224R (enzyme)
chain: B1 chain with R25K, H26M
EC50 of hC3 cleavage: 1230 nM

B11: MTSP-1 H40R/I41H/F97D/F99L/C122S/G151N/Q175L/Q192A/D217N/K224R (enzyme)
chain: B1 chain with M169L
EC50 of hC3 cleavage: 540 nM

B12: MTSP-1 H40R/I41H/F97D/F99L/C122S/G151N/Q192H/P232S (enzyme)
chain: B1 chain with M169Q, A188H, N214D, R221K, P229S
EC50 of hC3 cleavage: 262 nM

B17: MTSP-1 H40R/I41H/F97D/C122S/G151N/L153R/V202M (enzyme)
chain: B1 chain with L94F, L147R, M169Q, A188Q, V198M, N214D, R221K
EC50 of hC3 cleavage: 103 nM

B20: MTSP-1 H40R/I41H/F99L/C122S/G151K/Q192G (enzyme)
chain: B1 chain with D92F, N145K, M169Q, A188G, N214D, R221K
EC50 of hC3 cleavage: 1520 nM

B21: MTSP-1 H40R/I41H/F97T/ins97aE/T98G/F99L/C122S/Q175L/Q192E (enzyme)
chain: VVGGTDADEGEWPWQVSLHALGQGRHCGASLISPNWLVSAAHCYIDDRGFRYSDPTQWTAFLGLHDQSQRSAPGVQERRLKRIISHPFFNDTEGLDYDIALLELEKPAEYSSMVRPISLPDASHVFPAGKAIWVTGWGHTQYGGTGALILQKGEIRVINQTTCENLLPQLITPRMMCVGFLSGGVDSCEGDSGGPLSSVEADGRIFQAGVVSWGDGCAQRNKPGVYTRLPLFRDWIKENTGV
EC50 of hC3 cleavage: 5860 nM

B22: MTSP-1 H40R/I41H/F97E/ins97aE/T98G/F99L/C122S/Q175L/Q192G (enzyme)
chain: B21 chain with T92E, E189G
EC50 of hC3 cleavage: 82.4 nM

B23: MTSP-1 H40R/I41H/F97D/ins97aE/T98G/F99L/C122S/Q175L/Q192G (enzyme)
chain: B21 chain with T92D, E189G
EC50 of hC3 cleavage: 39.7 nM

B24: MTSP-1 I41R/ins97aE/F97T/T98G/F99L/C122S/G151E/Q175L/Q192E (enzyme)
chain: B21 chain with R25H, H26R, G146E
EC50 of hC3 cleavage: 126 nM

B25: MTSP-1 K86R/F97T/ins97aE/T98G/F99L/K110R/C122S/K134R/K157R/Q175L/Q192E/K224R/K239R (enzyme)
chain: B21 chain with R25H, H26I, K81R, K106R, K130R, K152R, K222R, K237R
EC50 of hC3 cleavage: 253 nM

B26: MTSP-1 H40R/I41H/F97T/ins97aE/T98G/F99L/C122S/Q175L/Q192G (enzyme)
chain: B21 chain with E189G
EC50 of hC3 cleavage: 46 nM

Results, then the binder that gave them:

EC50 of hC3 cleavage: 45.2 nM
B3: MTSP-1 H40R/I41H/F97D/F99L/C122S/Q175R/Q192G/D217H/K224S (enzyme)
chain: B1 chain with N145G, M169R, A188G, N214H, R221S

EC50 of hC3 cleavage: 1290 nM
B5: MTSP-1 H40K/I41M/F97D/F99L/C122S/G151N/Q175L/Q192A/D217N/K224R (enzyme)
chain: B1 chain with R25K, H26M, M169L

EC50 of hC3 cleavage: 144 nM
B8: MTSP-1 H40K/I41M/F97D/F99L/C122S/Q175M/D217N/K224R (enzyme)
chain: B1 chain with R25K, H26M, N145G, A188Q

EC50 of hC3 cleavage: 126 nM
B9: MTSP-1 H40R/I41H/F97D/C122S/G151N/L153R (enzyme)
chain: B1 chain with L94F, L147R, M169Q, A188Q, N214D, R221K

EC50 of hC3 cleavage: 59.9 nM
B10: MTSP-1 H40R/I41H/F97D/F99L/C122S/G151N/L153R (enzyme)
chain: B1 chain with L147R, M169Q, A188Q, N214D, R221K

EC50 of hC3 cleavage: 60.4 nM
B13: MTSP-1 H40R/I41H/F97D/C122S/G133D/G151N (enzyme)
chain: B1 chain with L94F, G128D, M169Q, A188Q, N214D, R221K

EC50 of hC3 cleavage: 110 nM
B14: MTSP-1 H40K/I41M/F99L/C122S/T150A/G151R/Q192G (enzyme)
chain: B1 chain with R25K, H26M, D92F, T144A, N145R, M169Q, A188G, N214D, R221K

EC50 of hC3 cleavage: 179 nM
B15: MTSP-1 H40R/I41H/F97D/F99L/C122S/G151N/Q192H (enzyme)
chain: B1 chain with M169Q, A188H, N214D, R221K

EC50 of hC3 cleavage: 9.74 nM
B16: MTSP-1 H40K/I41M/F97D/F99L/C122S/G151N/Q175M/Q192D/D217N/K224R (enzyme)
chain: B1 chain with R25K, H26M, A188D

EC50 of hC3 cleavage: 304 nM
B18: MTSP-1 H40R/I41H/K86R/F97D/K110R/C122S/K134R/G151N/K157R/K224R/K239R (enzyme)
chain: B1 chain with K81R, L94F, K105R, K129R, K151R, M169Q, A188Q, N214D, K236R

EC50 of hC3 cleavage: 9990 nM
B19: MTSP-1 H40R/I41H/F97D/F99L/C122S/Q175M/Q192D/D217N/K224R (enzyme)
chain: B1 chain with N145G, A188D

EC50 of hC3 cleavage: 17.3 nM
B27: MTSP-1 K86R/K110R/C122S/K134R/K157R/K224R/K239R (enzyme)
chain: VVGGTDADEGEWPWQVSLHALGQGHICGASLISPNWLVSAAHCYIDDRGFRYSDPTQWTAFLGLHDQSQRSAPGVQERRLRRIISHPFFNDFTFDYDIALLELERPAEYSSMVRPISLPDASHVFPAGRAIWVTGWGHTQYGGTGALILQRGEIRVINQTTCENLLPQQITPRMMCVGFLSGGVDSCQGDSGGPLSSVEADGRIFQAGVVSWGDGCAQRNRPGVYTRLPLFRDWIRENTGV
